The target in the assay is U1-A protein of the native human U1 snRNP (human (endogenous in HeLa)) (UniProt P09012). Briefly: native MS; nano ESI-MS of the intact U1 snRNP purified from HeLa cells, 200 mM ammonium acetate, Q-ToF2, collision cell 100 V; the complex holds U1 snRNA.

From publication PMC2747018 come the findings set out here.

UniProt P09012, sequence (P09012 whole entry): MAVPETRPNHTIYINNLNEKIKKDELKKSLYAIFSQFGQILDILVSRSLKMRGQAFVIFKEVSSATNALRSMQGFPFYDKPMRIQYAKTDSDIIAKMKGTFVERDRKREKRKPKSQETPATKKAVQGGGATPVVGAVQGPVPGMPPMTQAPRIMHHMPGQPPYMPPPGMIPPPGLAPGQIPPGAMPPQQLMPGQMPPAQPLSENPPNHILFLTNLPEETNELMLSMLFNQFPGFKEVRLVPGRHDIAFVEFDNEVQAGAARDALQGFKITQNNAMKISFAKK

Regarding “Sm-D1 (from UniProt P62314 1-119) (natural protein; other documents disagree on this pair)”, the stoichiometry N was 1.

With “Sm-F (from UniProt P62306 1-86) (natural protein; other documents disagree on this pair)”, the stoichiometry N came to 1.

The stoichiometry N is a count of units in the complex or per binding partner.
